Experimental data as given in patent publication US20030162190.

Assays:
NF-kB p50 homodimer = NF-kB p50 homodimer (UniProt P19838); assay: EMSA; conditions: only 'similar data was collected for p50'; method inferred
[1] = target: NF-kB p65 (RelA) homodimer (UniProt Q04206); assay: EMSA; conditions: 1:1 stoichiometry; method inferred
Sequence of NF-kB p65 (RelA) homodimer (Q04206 whole entry): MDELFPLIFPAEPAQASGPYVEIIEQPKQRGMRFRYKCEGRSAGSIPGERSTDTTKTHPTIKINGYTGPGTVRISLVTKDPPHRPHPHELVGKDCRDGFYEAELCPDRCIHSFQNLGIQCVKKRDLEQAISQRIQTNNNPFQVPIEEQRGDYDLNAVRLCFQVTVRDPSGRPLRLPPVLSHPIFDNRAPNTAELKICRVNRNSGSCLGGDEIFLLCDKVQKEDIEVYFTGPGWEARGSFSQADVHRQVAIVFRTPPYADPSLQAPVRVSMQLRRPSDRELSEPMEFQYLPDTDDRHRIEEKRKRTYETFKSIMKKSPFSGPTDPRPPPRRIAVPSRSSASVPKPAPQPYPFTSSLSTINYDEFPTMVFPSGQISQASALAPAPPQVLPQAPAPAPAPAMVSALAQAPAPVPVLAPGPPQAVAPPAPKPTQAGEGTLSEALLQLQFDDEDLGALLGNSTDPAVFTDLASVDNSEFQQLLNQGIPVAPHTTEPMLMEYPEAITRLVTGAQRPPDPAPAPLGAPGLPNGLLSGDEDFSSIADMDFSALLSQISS

Sequence of NF-kB p50 homodimer (P19838 1-433): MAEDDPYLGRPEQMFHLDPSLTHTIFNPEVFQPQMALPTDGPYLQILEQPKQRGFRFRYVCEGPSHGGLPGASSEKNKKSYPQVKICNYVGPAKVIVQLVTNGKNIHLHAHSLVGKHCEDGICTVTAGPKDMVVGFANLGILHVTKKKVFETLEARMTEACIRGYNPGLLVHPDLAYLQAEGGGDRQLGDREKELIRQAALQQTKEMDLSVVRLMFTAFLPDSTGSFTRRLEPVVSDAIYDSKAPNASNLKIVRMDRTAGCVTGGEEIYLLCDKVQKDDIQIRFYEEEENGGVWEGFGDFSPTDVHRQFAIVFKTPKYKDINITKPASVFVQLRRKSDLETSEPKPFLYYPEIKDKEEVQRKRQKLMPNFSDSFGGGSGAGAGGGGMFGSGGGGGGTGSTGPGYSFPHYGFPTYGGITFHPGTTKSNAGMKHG

IgkB 22-mer promoter site showed a Kd (NF-kB p50 homodimer) of 4 nM and a Kd [1] of 4 nM.
